In assay [1] the target is T1, recombinant full length TDP-43 (SEQ ID NO: 1, FL TDP-43) (human, UniProt Q13148 1-414).
T1 construct: also called recombinant human soluble FL TDP-43; soluble human TDP-43
The assay is described as follows: SPR Biacore T200, FL TDP-43 immobilized, antibody analyte (avidity), 1:1 fit. The method, then:
Binding avidity of ACI-7071-4665-B5-R3B-Ab2 to soluble FL TDP-43 was evaluated by determining the KD value using SPR (Biacore T200, GE Healthcare Life Sciences). Recombinant human soluble FL TDP-43 was immobilized on a CM5 Series S sensor chip (GE Healthcare Life Sciences) by amine coupling. Soluble TDP-43 was immobilized at a concentration of 5 μg/ml in 10 mM sodium acetate (pH 4.5) with a flow rate of 5 μl/min for 420 seconds resulting in an immobilization level of 150 RU. […] Antibodies were injected at a flow rate of […] for 90 seconds contact time and 700 seconds dissociation phase followed by three regenerations with 10 mM glycine-HCl (pH 1.7). For the optimized SPR protocol the antibodies were diluted 3-fold starting from 300 nM and dilute down to 1.2 nM and injected for 300 seconds at 30 μL/min followed by 600 seconds of dissociation. The chip surface was regenerated by one injection with 10 mM glycine-HCl (pH 1.7). Results obtained from binding kinetics were double referenced using a blank flow cell and a buffer cycle, and were evaluated with a global 1:1 fitting model with RI.
(In general: Surface plasmon resonance follows binding to a sensor surface in real time, without labels.)

Assay [2] concerns the target T1, recombinant full length TDP-43 (SEQ ID …). The assay is described as follows: pairing sandwich ELISA, antibody coated as capture, FL TDP-43 titrated. The method, then:
(§1) The capacity of antibodies to bind phospho TDP-43 and TDP-43 was determined using a sandwich enzyme-linked immunosorbent assay (ELISA), where each antibody was paired with a second TDP-43 antibody previously characterized for TDP-43 binding and performance in sandwich immunoassays, ACI-7071-809F12-Ab1-rec2 (as described in WO2020234473) or ACI-7069-636E5-Ab1 (as described in WO2020234473). ELISA plates (Nunc™ Edge™ 96-Well, Non-Treated, Flat-Bottom Microplate, ThermoFisher Scientific, Denmark) were coated with 5 μg/mL of anti-phospho TDP-43 or anti-TDP-43 antibodies in carbo/bicarbonate buffer, overnight at 4° C. Plates were then washed with 0.05% Tween-20/PBS and blocked with 1% bovine serum albumin (BSA) in 0.05% Tween-20/PBS for 1 hour at 37° C. The plates were then washed again as described above.
Serial-dilutions of target peptide or protein were then added to the plates. For assays with anti-phospho TDP-43 antibodies, one of four peptide conjugates (peptides 11, 23, 28, or 29) each composed of two TDP-43 sequences, one phosphorylated and one non-phosphorylated, conjugated together with a Trioxatridecan-succinamic acid linker (Ttds, binding regions and sequences shown in Table 4) were used. Peptides 11, 23, 28, and 29 were added in a 10-fold serial dilution starting at 0.5 μM. For assays with TDP-43 antibodies only, recombinant full length TDP-43 (SEQ ID NO: 1, FL TDP-43) was diluted 3-fold from 21.9 pM. Plates were incubated for 1 hour at 37° C., and then washed. […] PEG-biotinylated phospho TDP-43 or TDP-43 antibodies were then respectively added to the wells and incubated for 1 hour at 37° C., after which the plates were washed. Horseradish peroxidase (HRP)-conjugated streptavidin (R&D Systems, Switzerland) was added at 1/200 dilution in 1% BSA and 0.05% Tween-20/PBS for 45 min at room temperature. […] The plate was read at 450 nm using an ELISA plate reader (Tecan, Switzerland).
For orientation: In an ELISA, binding on a coated surface is turned into a signal by an enzyme label.

The target is the same in assay [3]. The assay is described as follows: pairing sandwich ELISA, biotinylated antibody as detector, FL TDP-43 titrated. The method, then:
as §1
Serial-dilutions of target peptide or protein were then added to the plates. For assays with anti-phospho TDP-43 antibodies, one of four peptide conjugates (peptides 11, 23, 28, or 29) each composed of two TDP-43 sequences, one phosphorylated and one non-phosphorylated, conjugated together with a Trioxatridecan-succinamic acid linker (Ttds, binding regions and sequences shown in Table 4) were used. Peptides 11, 23, 28, and 29 were added in a 10-fold serial dilution starting at 0.5 μM. […] The plate was read at 450 nm using an ELISA plate reader (Tecan, Switzerland).

Assay [4] deals with T2, biotinylated non-phosphorylated TDP-43 peptide 366-414 (human, biotin on the N-terminus).
T2 peptide: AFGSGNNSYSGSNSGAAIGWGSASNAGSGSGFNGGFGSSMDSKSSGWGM
Put plainly: capture ELISA, antibody on anti-mouse IgG, biotinylated peptide. The method, then: (§2) Briefly, for capture detection in ELISA, wells of 96-well plates were coated with 5 μg/mL goat anti-mouse IgG (Fc gamma fragment specific), in carbonate buffer, overnight at 4° C. Plates were then washed with 0.05% Tween-20/PBS and blocked with 1% bovine serum albumin (BSA) in 0.05% Tween-20/PBS for 1 hour at 37° C. Phospho TDP-43 antibodies were then added at 5 μg/mL and incubated for 2 hours at 37° C. after which the plates were washed as described above. Biotinylated peptides representing each of the phospho sites, or non-phosphorylated, were incubated at 0.5 mM in 0.1% BSA and PBS for 1 hour at 37° C. after which the plates were washed. A streptavidin-HRP-conjugate (R&D Systems, Minnesota, United States) was added at 1/200 dilution in 0.05% Tween-20/1% BSA in PBS for 45 minutes in the dark at ambient temperature. After the final wash, plates were incubated with TMB (Sigma-Aldrich, Switzerland), an HRP substrate solution, and read at 405 nm using an ELISA plate reader (Tecan, Switzerland).

Assay [5] has as its target T3, biotinylated TDP-43 phospho peptide 401-413 (pS409) (human).
T3 peptide: Biotin-FGSSMDSK[pS]SGWG
The description is as above. The method, then: as §2

For assay [6], the target named is T4, biotinylated TDP-43 phospho peptide 401-413 (pS409 and pS410) (human).
T4 peptide: Biotin-FGSSMDSK[pS][pS]GWG
The assay is described as above. The method, then: as §2

For assay [7], the target named is T5, biotinylated TDP-43 phospho peptide 401-413 (pS410) (human).
T5 peptide: Biotin-FGSSMDSKS[pS]GWG
Described as above. The method, then:
as §2

In assay [8] the target is T6, biotinylated TDP-43 phospho peptide 396-409 (pS403) (human, phosphoserine at 403 (SEQ ID NO: 1 numbering); biotin on the N-terminus).
T6 peptide: GFNGGFGSSMDSKS
The description is as above. The method, then:
as §2

The target in assay [9] is T7, biotinylated TDP-43 phospho peptide 396-409 (pS403 and pS404) (human, phosphoserine at 403 and 404 (SEQ ID NO: 1 numbering); biotin on the N-terminus).
T7 peptide: GFNGGFGSSMDSKS
The description is as above. The method, then: as §2

Assay [10] has as its target T8, biotinylated TDP-43 phospho peptide 396-409 (pS404) (human).
T8 peptide: Biotin-GFNGGFGS[pS]MDSKS
The assay is described as above. The method, then:
as §2

The values below come from patent US20260043816A1 (AC IMMUNE, published 2026).

Square brackets hold non-standard residues; d marks the D form. Ends that are not written are not given here. * marks the point of attachment. Biotin = O=C1N[C@H]2[C@H](CS[C@H]2CCCCC(=O)*)N1; pS = N[C@@H](COP(=O)(O)O)C(=O)O

B1: ACI-7071-4665-B5-R3B-Ab2 (antibody, mouse IgG2a, V domains shown)
VH: QVQLKQSGPELVKPGASVKLSCKASGYTFTTYDINWVKQRPGQGPEWIGWIYPRVGNTKYNEKFKDKATLTVDTSSSTAYMELHSLTSEDSAVYFCASALTYWGQGTLVTVSA
VL: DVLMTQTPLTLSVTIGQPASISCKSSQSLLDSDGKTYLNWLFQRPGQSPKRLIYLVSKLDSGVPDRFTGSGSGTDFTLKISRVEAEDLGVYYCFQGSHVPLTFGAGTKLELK
notes: also called 4665-B5-R3B-B8; ACI-7071-4665-B5-Ab2
Regarding B1, the Kd in assay [1] came out at 0.39 nM. In addition, the koff (in general, a measure of how fast the partners let go of each other) in [1] was 1.66e-05 s⁻¹. Also, in assay [1], the kon (as a rule, the second-order rate constant of association) was 42900 M⁻¹ s⁻¹. Also, the EC50 (as a rule, the concentration giving half of the maximal effect) in assay [2] is 0.072 nM; in assay [3], 0.181 nM. Moreover, the binding result in [4] is given as “binds”; in assay [5] it was “no binding (tested: peptide at 0.5 mM)”; in assay [6], “no binding (tested: peptide at 0.5 mM)”; in [7], “no binding (tested: peptide at 0.5 mM)”; in assay [8], “no binding (tested: peptide at 0.5 mM)”; in assay [9] it was “no binding (tested: peptide at 0.5 mM)”. In assay [10], the binding result is reported as “no binding (tested: peptide at 0.5 mM)”.

B2: ACI-8070-942.30D12-Ab1 (antibody, V domains shown)
VH: DVQLVESGGGLVQPGGSRKLSCEASGFTFSSIGMHWVRQAPEKGLEWVAYITSGSSTIYYADTVKGRFTISRDNPKNTLFLQMTSLRSEDTAIYYCAGSGPGTDYWGQGTTLTVSS
VL: DIKMTQSPSSMYASLGERVTITCKASQDINSYLSWFQQKPGKSPKTLIYRANRLVDGVPSRFSGSGSGQDYSLTISSLEYEDMGIYYCLQYDEFPLTFGAGTKLELK
notes: Mouse hybridoma antibody; also called 942.30D12F9; pS375/pS379 TDP-43 antibody
As for B2, the binding result in assay [4], in assay [5], in assay [6], in [7], in assay [8] and in [9] was “no binding (tested: peptide at 0.5 mM)” throughout. For the same molecule, in assay [10], the binding result is on record as “no binding (tested: peptide at 0.5 mM)”.

B3: ACI-7069-636E5-Ab1 (as described in WO2020234473) (antibody, V domains shown)
VH: EVHLVESGGDLVMPGGSLKLSCAASGFTFSNYGMSWVRQTPDKRLEWVATISSGGKYINYLDSLKGRFTISRDNAKNTLYLQMSSLKSEDTAMYYCAKDYGSGWAWFAYWGQGTLVTVSA
VL: QLVLTQSSSASFSLGASAKLTCTLSSQHSTYTIEWYQQQPLKPPKYVMELKKDGSHSTGDGIPDRFSGSSSGADRYLSISNIQPEDEAIYICGVGDTIKEQFVYVFGGGTKVTVL
notes: also called 636E5B8
B3: the EC50 in assay [2] amounted to 1.16 nM; in [3] it was 0.07 nM.
